Measured values from US20140363423A1 (NATIONAL TAIWAN UNIVERSITY, published 2014).
“And” between values parts separate entries of the source, which are not always exact repeats. Equal values may be shown once.

T1: platelet glycoprotein VI (GPVI) on washed human platelets (human), Q9HCN6
T1 chain: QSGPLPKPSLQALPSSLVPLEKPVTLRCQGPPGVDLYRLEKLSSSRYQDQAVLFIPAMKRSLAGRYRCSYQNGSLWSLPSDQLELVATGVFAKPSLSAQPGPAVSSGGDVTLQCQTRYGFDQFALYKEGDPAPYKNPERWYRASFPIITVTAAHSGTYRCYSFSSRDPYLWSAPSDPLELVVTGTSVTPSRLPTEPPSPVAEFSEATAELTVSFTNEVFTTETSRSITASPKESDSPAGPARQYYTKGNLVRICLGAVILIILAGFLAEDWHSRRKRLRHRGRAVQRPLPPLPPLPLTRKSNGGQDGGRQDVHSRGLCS

T2: platelet glycoprotein VI (GPVI) on washed human platelets (human, UniProt Q9HCN6 21-339)
T2 sequence: T1 chain


Columns and labels:
[1] = target: platelet glycoprotein VI (GPVI) on washed human platelets (human) (UniProt Q9HCN6); test: cell-based or functional assay
[2] = target: T1, platelet glycoprotein VI (GPVI) on …; test: cell-based or functional assay
[3] = target: T2, platelet glycoprotein VI (GPVI) on …; test: cell-based or functional assay
[4] = target: T2, platelet glycoprotein VI (GPVI) on …; test: flow cytometry on human platelets; inhibition of 6B12 (anti-GPVI) binding

| Molecule | Inhibition of the collagen-induced aggregation (%) at 100 µg/ml [1] [%] | Inhibition of the collagen-induced aggregation (%) at 100 µg/ml [3] [%] | other results |
| --- | --- | --- | --- |
| Tro-α6 M117A mutant hexapeptide CKWANV | 52.9 |  |  |
| d-form Tro-α6 hexapeptide C(dK)WM(dN)V | 89.4 |  | IC50, inhibition of the collagen-induced aggregation [1]: 6.82 µg/ml and 8.75 µM |
| Tro-α6 W116A mutant hexapeptide CKAMNV | 12.3 |  |  |
| GFCKWMNVAC (modifications not checked) [decapeptide of trowaglerix α subunit (Troα10, …)] |  |  | IC50, inhibition of the collagen-induced aggregation [2]: 30.4 µM; Inhibition of the collagen-induced aggregation (%) at 100 µg/ml [2]: 93.8%; inhibition on collagen-induced aggregation [2]: 60% |
| RKWFVA [CVX-α6 (Convulxin) hexapeptide RKWFVA] |  | 28.7 |  |
| RKWVNY [Agg-α6 (Aggretin) hexapeptide RKWVNY] |  | 21.7 |  |
| CKWMNV [hexapeptide of trowaglerix α subunit (Troα6, CKWMNV)] |  | 44.3 | IC50, inhibition of the collagen-induced aggregation [3]: 83.4 µg/ml and 107 µM |
| NQWLSR [Agk--β6 hexapeptide NQWLSR] |  | 24.6 |  |
| CSLLKKETGFRKWFVASCIGKIPFVCKFPPQC [recombinant convulxin α subunit C-terminal (CVX α C-terminal 104-135)] |  |  | binding result [4]: binds |
| EEFECLISRTFDNQWLSAPCSDTYSFVCKFEA [recombinant convulxin β subunit C-terminal (CVX β C-terminal 94-125)] |  |  | binding result [4]: binds |
